{"source": "paper PMC9771723", "about": "(iScience, 2022)", "proteins": {"B1": {"name": "M2(1-46) of influenza A/Hong Kong/8/68 (H3N2) in nanodiscs (domain or fragment)", "chain": "MSLLTEVETPIRNEWGCRCNDSSDPLVVAASIIGILHLILWILDRL"}}, "biological_target": "the molecule itself", "assay": "cross-linking", "data": [{"protein": "B1", "values": [{"measurement": "stoichiometry N", "result": 4}]}]}
